B1: 2M8U (parent)
chain: TKAQVIEAFKVFDRDGNGYVTVDYLRKVLNELGDMMPADEIEEMIYEADPQNSGYVQYETFVGMLFL

Variants of: B1
Assay: folding stability dG (cDNA display proteolysis); higher = more stable
Details: PBS, room temperature

Folding stability dG [kcal/mol], by site and new letter:
M44: Q 2.95; D 2.25; H 3.52; V 3.07; T 2.97; C 3.6; G 2.53; P 1.8; Y 3.21; N 2.88; L 3.65; K 3.56; A 3.48; W 3.21; E 2.18; I 3.05; F 3.09; S 2.96; R 3.66
Y58: E 1.4; W 3.45; G 1.62; D 1.3; H 1.99; N 1.27; R 1.77; I 3.25; K 1.56; F 2.81; Q 1.77; L 2.51; C 2.07; T 2.02; M 2.46; A 2.11; V 2.67; P 1.71; S 2.04
F61: D 0.727; C 2.13; A 2.41
Q51: R 3.3; I 3.31; A 3.47; F 3.58; M 3.49; E 3.48; W 3.49; Y 3.62; S 3.49; D 3.56; K 3.45; G 3.43; V 3.34; H 3.54; P 2.52; C 3.71; T 3.56; N 3.46; L 3.53
E59: Q 3.11; V 3.68; M 3.93; N 2.91; C 3.25; I 3.41; W 3.37; T 3.12; Y 3.82; P 2.47; F 3.54; S 3.05; K 3.23; L 3.47; A 3.15; D 2.99; R 3.06; G 2.76; H 3.24
T60: A 3.63; L 3.72; D 3.42; P 3.52; F 3.32; M 3.44; Y 3.43; V 3.31; K 3.72; C 3.43; E 3.61; I 3.58; Q 3.55; W 3.58; H 3.66; S 3.6; R 3.68
Y55: I 3.37; G 2.16; N 3.16; M 3.51; L 3.35; D 2.22; P 1.77; C 3.44; F 3.35; S 3.25; H 3.22; W 3.55; K 3.25; E 3.05; Q 3.48; A 2.82; T 3.11; V 3.44; R 3.37
S53: E 3.09; Y 3.2; P 2.4; H 3.11; K 3.39; M 3.23; V 3.15; T 3.49; L 3.2; I 3.21; N 3.26; R 3.35; Q 3.28; F 3.16; W 3.22; A 3.19; G 2.94; C 3.18; D 3.02
N52: E 3.38; Q 3.47; S 3.57; R 3.57; C 3.42; T 3.32; K 3.4; P 2.43; V 3.26; F 3.52; G 3.51; Y 3.31; M 3.42; I 3.03; W 3.1; L 3.36; H 3.46; A 3.38; D 3.37
P50: R 3.38; E 2.89; Q 3.25; C 3.11; M 3.05; V 2.99; F 3.05; A 3.3; S 3.29; W 3.39; Y 3.06; G 3; T 3.12; I 3.23; K 3.39; H 3.07; L 3.21; N 3.05; D 2.9
Q57: K 3.2; Y 3.51; F 3.62; I 2.96; W 3.18; P 2.64; V 3.1; R 3.13; H 3.85; N 3.61; L 3.08; T 2.41; S 2.71; A 3.31; E 3.56; D 3.25; M 3.27; G 2.69; C 3.25
Y46: Q 3.66; H 3.62; E 3.36; M 3.58; F 3.55; N 3.57; I 3.47; K 3.64; W 3.56; C 3.46; T 3.62; L 3.44; P 2.82; D 3.29; A 3.52; V 3.5; G 3.44; R 3.66; S 3.52
I45: G 2.2; L 3.19; S 2.16; C 2.67; N 2.17; Q 1.91; V 3; R 2.06; D 2.39; A 2.37; T 2.13; P 1.88; Y 2.5; F 2.61; K 2.41; E 2.15; M 2.88; W 2.6; H 2.08
G54: H 2.49; C 2.59; F 2.89; N 2.9; L 2.48; M 2.59; I 2.76; P 2.26; Q 2.29; K 2.47; T 2.35; E 2.26; S 2.48; A 2.36; V 2.48; D 2.06; R 2.56; W 2.82; Y 2.93
D49: M 2.71; S 2.93; G 2.36; A 2.62; N 2.75; W 2.66; Q 2.53; E 2.25; C 2.7; T 2.83; Y 2.67; F 2.43; P 2.15; R 2.21; V 2.58; K 2.14; H 2.3; I 2.49; L 2.43
A48: S 3.53; L 3.45; M 3.28; E 2.78; V 3.28; I 3.33; N 3.44; D 2.1; F 3.44; K 2.63; T 3.33; G 2.64; P 2.25; W 3.34; Y 3.48; H 3.68; C 3.84; R 2.9; Q 3.37
V56: Q 1.96; D 2.39; K 1.78; E 2.33; C 2.17; T 2.14; P 1.86; I 3.69; A 2.7; L 3.07; R 2.24; Y 2.29; N 1.99; H 2.04; W 2.49; G 2.62; S 2.17; M 2.55; F 2.62
E43: P 3.54; N 3.64; M 3.82; S 3.74; T 3.73; V 3.78; W 3.87; Y 3.69; R 4.37; Q 3.9
E47: P 2.33; F 3.75; Y 3.51; T 3.73; Q 3.96; V 3.85; W 3.76; L 3.88; D 3.49; M 3.87; I 3.92; C 3.66; A 3.76; G 3.5; S 3.71; N 3.52; K 4.09; H 3.8; R 4.15
